Reference: US20100184658A1 (published 2010)

Columns and labels:
Assay in all cases: cell-based or functional assay
IKBKB (IKK beta) IKK2 = target: T1, IKBKB (IKK beta) IKK2 (human (printed as (h)), UniProt O14920 1-756, limits assumed)
T1 sequence (looked up): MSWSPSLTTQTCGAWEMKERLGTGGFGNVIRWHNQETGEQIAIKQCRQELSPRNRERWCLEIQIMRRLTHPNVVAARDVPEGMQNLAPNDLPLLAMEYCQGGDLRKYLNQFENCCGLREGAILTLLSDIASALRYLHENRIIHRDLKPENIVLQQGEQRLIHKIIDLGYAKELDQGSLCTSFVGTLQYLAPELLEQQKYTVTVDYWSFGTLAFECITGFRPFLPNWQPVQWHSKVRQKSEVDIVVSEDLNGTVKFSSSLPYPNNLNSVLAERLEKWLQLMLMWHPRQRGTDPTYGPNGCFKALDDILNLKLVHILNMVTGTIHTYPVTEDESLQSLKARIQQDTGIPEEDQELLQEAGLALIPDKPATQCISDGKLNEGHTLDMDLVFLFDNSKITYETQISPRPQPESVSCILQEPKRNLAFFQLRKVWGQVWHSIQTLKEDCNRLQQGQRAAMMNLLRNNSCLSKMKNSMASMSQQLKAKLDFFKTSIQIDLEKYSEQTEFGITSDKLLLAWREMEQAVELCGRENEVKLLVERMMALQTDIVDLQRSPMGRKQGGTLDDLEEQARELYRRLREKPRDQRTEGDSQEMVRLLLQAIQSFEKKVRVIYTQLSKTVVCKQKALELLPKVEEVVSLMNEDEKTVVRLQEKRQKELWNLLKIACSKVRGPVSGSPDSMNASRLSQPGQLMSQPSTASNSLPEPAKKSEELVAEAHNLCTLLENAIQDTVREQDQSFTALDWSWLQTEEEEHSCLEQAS

[1] = target: RPS6KB1 (p70S6K) Ribosomal protein S6 kinase, 70 kDa, polypeptide 1 (human (printed as (h)), UniProt P23443 1-421, limits assumed)
Sequence of RPS6KB1 (p70S6K) Ribosomal protein S6 kinase, 70 kDa, polypeptide 1 (human (printed as (h)), UniProt P23443 1-421, limits assumed) (P23443 1-421 limits assumed): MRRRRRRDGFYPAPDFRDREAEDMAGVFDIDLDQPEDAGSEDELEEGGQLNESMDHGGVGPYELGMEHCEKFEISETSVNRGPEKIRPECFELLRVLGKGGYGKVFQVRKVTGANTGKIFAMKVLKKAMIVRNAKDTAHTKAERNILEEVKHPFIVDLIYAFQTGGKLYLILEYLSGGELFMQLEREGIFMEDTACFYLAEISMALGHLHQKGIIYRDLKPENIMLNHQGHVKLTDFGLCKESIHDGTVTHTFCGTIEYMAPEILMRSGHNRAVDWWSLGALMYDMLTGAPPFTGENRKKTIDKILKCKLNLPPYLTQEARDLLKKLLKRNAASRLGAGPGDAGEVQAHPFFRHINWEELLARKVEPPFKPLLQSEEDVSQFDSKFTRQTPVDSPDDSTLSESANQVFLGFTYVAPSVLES

[2] = target: T2, SGK (SGK1) Serum/glucocorticoid regulated kinase (human (printed as (h)), UniProt O00141 60-431, limits assumed)
T2 sequence (looked up): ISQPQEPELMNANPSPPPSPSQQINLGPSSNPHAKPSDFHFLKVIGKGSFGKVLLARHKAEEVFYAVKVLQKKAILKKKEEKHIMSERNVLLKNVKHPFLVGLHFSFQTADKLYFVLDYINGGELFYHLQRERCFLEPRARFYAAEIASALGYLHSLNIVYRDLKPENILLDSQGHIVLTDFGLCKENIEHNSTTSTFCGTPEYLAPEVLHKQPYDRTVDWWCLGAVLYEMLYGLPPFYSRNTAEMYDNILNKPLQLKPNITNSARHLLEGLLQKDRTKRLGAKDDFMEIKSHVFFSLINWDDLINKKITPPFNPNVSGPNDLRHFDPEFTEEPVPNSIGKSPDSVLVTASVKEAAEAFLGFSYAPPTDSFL

PKA(h) = PKA(h) (human (printed as (h)), UniProt P17612 1-351)
PRKCB2 (PKC beta II) = PRKCB2 (PKC beta II) (human (printed as (h)), UniProt P05771-2 1-673)
Sequence of PRKCB2 (PKC beta II) (human (printed as (h)), UniProt P05771-2 1-673) (P05771 other isoform, or with tags, fused parts or gaps limits assumed): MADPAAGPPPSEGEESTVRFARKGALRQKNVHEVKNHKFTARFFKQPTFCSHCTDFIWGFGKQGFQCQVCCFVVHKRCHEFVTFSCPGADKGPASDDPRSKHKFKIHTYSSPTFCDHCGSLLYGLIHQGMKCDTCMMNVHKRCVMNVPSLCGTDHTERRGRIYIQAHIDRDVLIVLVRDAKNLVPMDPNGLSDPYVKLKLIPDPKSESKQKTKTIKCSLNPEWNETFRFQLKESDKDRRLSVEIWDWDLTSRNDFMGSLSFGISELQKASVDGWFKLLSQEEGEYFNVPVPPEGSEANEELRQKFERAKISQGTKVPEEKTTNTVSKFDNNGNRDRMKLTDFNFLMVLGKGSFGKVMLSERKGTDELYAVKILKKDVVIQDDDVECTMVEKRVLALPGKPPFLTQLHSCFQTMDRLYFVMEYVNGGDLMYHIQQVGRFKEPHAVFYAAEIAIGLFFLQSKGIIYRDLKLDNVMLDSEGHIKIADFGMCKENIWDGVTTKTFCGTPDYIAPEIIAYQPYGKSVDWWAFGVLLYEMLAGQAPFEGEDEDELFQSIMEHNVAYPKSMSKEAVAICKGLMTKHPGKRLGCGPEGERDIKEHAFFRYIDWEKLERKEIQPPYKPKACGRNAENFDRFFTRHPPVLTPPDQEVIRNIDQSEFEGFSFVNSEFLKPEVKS

AKT2 (PKB beta) = AKT2 (PKB beta) (human (printed as (h)), UniProt P31751 1-481, limits assumed)
Sequence of AKT2 (PKB beta) (human (printed as (h)), UniProt P31751 1-481, limits assumed) (P31751 whole entry): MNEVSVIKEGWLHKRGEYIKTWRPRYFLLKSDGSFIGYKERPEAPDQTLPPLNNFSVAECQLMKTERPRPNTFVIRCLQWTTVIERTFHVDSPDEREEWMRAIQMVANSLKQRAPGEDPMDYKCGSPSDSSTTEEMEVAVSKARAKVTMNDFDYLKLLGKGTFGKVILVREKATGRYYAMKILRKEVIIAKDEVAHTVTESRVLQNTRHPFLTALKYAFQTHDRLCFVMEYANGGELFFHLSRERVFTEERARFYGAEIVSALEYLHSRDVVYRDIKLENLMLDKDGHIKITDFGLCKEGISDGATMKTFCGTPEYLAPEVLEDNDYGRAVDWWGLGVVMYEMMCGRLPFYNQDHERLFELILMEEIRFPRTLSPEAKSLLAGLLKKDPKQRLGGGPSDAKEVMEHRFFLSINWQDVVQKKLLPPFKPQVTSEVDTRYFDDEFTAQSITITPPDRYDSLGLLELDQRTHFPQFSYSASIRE

IR (h) = IR (h) (human (printed as (h)), UniProt P06213 1005-1310, limits assumed)
Sequence of IR (h) (human (printed as (h)), UniProt P06213 1005-1310, limits assumed) (P06213 1005-1310 limits assumed): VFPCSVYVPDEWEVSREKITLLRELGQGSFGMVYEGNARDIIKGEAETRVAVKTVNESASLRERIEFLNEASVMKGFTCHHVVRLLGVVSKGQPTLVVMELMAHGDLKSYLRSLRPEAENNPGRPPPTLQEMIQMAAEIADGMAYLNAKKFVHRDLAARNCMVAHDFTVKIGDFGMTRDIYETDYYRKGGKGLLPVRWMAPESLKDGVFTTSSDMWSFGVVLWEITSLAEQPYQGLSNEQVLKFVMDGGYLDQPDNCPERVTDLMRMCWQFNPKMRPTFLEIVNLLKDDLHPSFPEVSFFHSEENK

MAPK2(h) = MAPK2(h) (human (printed as (h)), UniProt P28482 1-360)
Sequence of MAPK2(h) (human (printed as (h)), UniProt P28482 1-360) (P28482 whole entry): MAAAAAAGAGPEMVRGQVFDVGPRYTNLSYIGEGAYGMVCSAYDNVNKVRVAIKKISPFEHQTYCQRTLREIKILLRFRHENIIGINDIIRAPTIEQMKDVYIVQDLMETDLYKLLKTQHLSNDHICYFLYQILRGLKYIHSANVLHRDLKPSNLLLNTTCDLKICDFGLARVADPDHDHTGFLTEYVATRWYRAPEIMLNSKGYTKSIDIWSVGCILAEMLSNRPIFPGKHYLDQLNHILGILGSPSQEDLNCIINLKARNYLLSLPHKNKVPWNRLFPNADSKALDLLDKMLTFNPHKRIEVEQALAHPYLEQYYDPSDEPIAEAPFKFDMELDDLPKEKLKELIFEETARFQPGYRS

MAPK1(h) = MAPK1(h) (human (printed as (h)), UniProt P28482 1-360, limits assumed)
Sequence of MAPK1(h) (human (printed as (h)), UniProt P28482 1-360, limits assumed) (P28482 whole entry): as above

GSK3β(h) = GSK3β(h) (human (printed as (h)), UniProt P49841 1-420, limits assumed)
Sequence of GSK3β(h) (human (printed as (h)), UniProt P49841 1-420, limits assumed) (P49841 whole entry): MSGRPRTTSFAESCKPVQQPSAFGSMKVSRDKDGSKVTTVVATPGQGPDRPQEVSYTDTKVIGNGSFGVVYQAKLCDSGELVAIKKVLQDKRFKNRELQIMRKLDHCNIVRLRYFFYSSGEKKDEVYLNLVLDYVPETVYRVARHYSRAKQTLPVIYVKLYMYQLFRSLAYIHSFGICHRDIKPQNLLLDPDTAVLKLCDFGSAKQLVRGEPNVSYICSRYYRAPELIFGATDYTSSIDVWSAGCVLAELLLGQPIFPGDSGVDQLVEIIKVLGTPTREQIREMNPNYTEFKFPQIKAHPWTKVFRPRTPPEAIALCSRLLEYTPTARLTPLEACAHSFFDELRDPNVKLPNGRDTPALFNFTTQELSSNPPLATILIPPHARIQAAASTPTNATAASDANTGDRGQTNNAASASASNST

PDK1 = target: T3, PDK1 (human (printed as (h)), UniProt O15530 1-556, limits assumed)
T3 sequence (looked up): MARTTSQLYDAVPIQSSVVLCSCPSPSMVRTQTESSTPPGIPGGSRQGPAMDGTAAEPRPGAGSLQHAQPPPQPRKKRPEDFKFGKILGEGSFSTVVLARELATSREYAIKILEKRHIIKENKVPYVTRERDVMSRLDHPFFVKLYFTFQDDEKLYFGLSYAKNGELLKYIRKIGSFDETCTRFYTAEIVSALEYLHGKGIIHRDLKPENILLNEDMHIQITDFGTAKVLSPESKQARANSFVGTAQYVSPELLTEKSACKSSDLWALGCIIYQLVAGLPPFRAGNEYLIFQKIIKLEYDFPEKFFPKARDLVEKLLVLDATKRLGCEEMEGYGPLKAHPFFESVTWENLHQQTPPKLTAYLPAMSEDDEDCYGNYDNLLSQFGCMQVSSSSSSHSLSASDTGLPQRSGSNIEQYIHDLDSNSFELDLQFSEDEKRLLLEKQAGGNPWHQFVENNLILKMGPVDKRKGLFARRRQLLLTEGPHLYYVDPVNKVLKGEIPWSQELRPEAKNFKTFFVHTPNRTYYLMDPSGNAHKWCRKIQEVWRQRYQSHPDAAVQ

Binder: SGRPPMIVWFNRPFLIAVSHTHGQTILFMAKVINPVGA [D3 peptide]
- D3 at 0.1 µM % activity (IKBKB (IKK beta) IKK2): 103%
- D3 at 1 µm % activity (IKBKB (IKK beta) IKK2): 71%
- D3 at 0.1 µM % activity [1]: 73%
- D3 at 1 µm % activity [1]: 22%
- IC50 [1]: 373 nM
- D3 at 0.1 µM % activity [2]: 74%
- D3 at 1 µm % activity [2]: 5%
- IC50 [2]: 325 nM
- D3 at 0.1 µM % activity (PKA(h)): 115%
- D3 at 1 µm % activity (PKA(h)): 105%
- D3 at 0.1 µM % activity (PRKCB2 (PKC beta II)): 101%
- D3 at 1 µm % activity (PRKCB2 (PKC beta II)): 103%
- D3 at 0.1 µM % activity (AKT2 (PKB beta)): 63%
- D3 at 1 µm % activity (AKT2 (PKB beta)): 12%
- IC50 (AKT2 (PKB beta)): 448 nM
- D3 at 0.1 µM % activity (IR (h)): 96%
- D3 at 1 µm % activity (IR (h)): 103%
- D3 at 0.1 µM % activity (MAPK2(h)): 96%
- D3 at 1 µm % activity (MAPK2(h)): 96%
- D3 at 0.1 µM % activity (MAPK1(h)): 86%
- D3 at 1 µm % activity (MAPK1(h)): 92%
- D3 at 0.1 µM % activity (GSK3β(h)): 101%
- D3 at 1 µm % activity (GSK3β(h)): 100%
- D3 at 0.1 µM % activity (PDK1): 98%
- D3 at 1 µm % activity (PDK1): 108%
